Data on two molecules can be found in paper PMC9177663, “Substrate-dependent modulation of the leukotriene A4 hydrolase aminopeptidase activity and effect in a murine model of acute lung inflammation” (Scientific Reports, 2022).

In series [1] the target is T1, leukotriene A4 hydrolase (LTA4H) (Homo sapiens, UniProt P09960).
T1 construct: N-terminal (His)6- and Xpress-tag
T1 sequence (P09960 2-611): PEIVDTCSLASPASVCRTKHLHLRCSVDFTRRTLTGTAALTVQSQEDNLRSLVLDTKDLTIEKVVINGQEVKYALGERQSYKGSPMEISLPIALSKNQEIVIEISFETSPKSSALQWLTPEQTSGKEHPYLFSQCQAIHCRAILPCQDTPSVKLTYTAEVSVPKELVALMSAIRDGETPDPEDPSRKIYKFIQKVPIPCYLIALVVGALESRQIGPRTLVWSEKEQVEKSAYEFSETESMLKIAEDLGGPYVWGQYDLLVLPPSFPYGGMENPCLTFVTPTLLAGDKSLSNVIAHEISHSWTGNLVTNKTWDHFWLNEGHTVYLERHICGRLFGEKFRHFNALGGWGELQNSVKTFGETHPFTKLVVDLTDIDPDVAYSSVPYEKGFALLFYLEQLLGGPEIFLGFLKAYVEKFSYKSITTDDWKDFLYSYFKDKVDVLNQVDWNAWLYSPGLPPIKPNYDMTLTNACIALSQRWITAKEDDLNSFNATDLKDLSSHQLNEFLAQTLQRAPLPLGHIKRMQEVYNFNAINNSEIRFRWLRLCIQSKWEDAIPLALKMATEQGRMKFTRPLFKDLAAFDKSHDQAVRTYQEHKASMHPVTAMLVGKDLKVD
Description: X-ray co-crystal structure of ternary LTA4H:4MDM:OPB-Pro complex, […] Å. It is filed as binding.

Substrate in series [2]: O=C(Nc1ccc([N+](=O)[O-])cc1)[C@@H]1CCCN1
The experiment in a line: Michaelis-Menten hydrolysis kinetics of purified LTA4H at A405 (KM). It is filed as biochemical, Homo sapiens. Conditions: Zn2+ LTA4H AP substrate site.

Substrate in series [3]: C[C@H](N)C(=O)Nc1ccc([N+](=O)[O-])cc1
Described as above. The class given is biochemical, Homo sapiens. As to conditions: Zn2+ LTA4H AP substrate site.

Substrate in the series “purified protein”: N=C(N)NCCC[C@H](N)C(=O)Nc1ccc([N+](=O)[O-])cc1
The experiment in a line: purified protein. Conditions: Zn2+ LTA4H AP substrate site; cannot bind simultaneously with 4MDM.

For `O=C(O)[C@@H]1CCCN1C(=O)CCC(=O)N1CCCC1` [OPB-Pro, N-(4-oxo-4-pyrrolidinyl-butanoyl)-proline], the “X-ray co-crystal structure of ternary LTA4H:4MDM:OPB-Pro complex, 2.8 Å” value in series [1] is recorded as “The OPB-Pro was bound in the AP active site with its prolyl carbonyl group interacting with the zinc atom”.

B1: leukotriene A4 hydrolase (LTA4H) (Homo sapiens) (protein)
chain: T1 sequence (P09960 2-611)
notes: N-terminal (His)6- and Xpress-tag
As to B1, the results for the Km (in series [2]; in series [3]; in the series “purified protein”) were 840 ± 50 µM, 1600 ± 120 µM and 18790 ± 2730 µM, respectively. The kcat in series [2] was found to be 0.19 ± 0.01 s⁻¹; in series [3], 1.74 ± 0.07 s⁻¹; in the series “purified protein” it was 24.4 s⁻¹. Besides, the catalytic efficiency (kcat/Km) worked out at 230 M⁻¹ s⁻¹ in series [2], 1080 M⁻¹ s⁻¹ in series [3] and 1300 M⁻¹ s⁻¹ in the series “purified protein”.
